What all share (test): SPR, KD relative to WT C2;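 further: biacore SPR at 37 °C, anti-C2 mAbs captured via immobilised goat anti-human IgG, C2 alanine or serine surface mutants as analytes, 1:1 model fitted, double-referenced sensograms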
A general note: SPR reads the build-up and loss of mass on a sensor chip optically.

One assay deals with T1, human C2 D511A (human, UniProt P06681 21-752).
T1 sequence: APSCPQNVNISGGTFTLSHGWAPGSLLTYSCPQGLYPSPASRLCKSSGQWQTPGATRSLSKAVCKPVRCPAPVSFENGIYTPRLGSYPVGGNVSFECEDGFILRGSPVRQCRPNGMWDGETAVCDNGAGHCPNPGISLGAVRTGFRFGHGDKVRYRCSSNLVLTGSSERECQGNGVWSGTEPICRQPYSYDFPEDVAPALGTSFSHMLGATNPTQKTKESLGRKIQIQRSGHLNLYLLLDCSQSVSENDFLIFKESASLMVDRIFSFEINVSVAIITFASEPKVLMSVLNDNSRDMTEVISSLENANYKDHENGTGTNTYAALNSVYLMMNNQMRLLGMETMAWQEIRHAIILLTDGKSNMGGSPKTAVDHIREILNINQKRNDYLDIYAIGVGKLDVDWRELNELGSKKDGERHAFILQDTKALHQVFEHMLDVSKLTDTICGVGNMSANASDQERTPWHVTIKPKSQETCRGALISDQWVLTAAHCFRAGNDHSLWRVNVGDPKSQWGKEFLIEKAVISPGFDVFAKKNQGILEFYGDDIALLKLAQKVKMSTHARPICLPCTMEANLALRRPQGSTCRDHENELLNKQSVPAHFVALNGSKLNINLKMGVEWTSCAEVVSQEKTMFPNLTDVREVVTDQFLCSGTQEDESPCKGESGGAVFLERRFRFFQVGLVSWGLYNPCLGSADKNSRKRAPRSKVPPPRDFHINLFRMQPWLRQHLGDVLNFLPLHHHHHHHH

For a further assay, the target named is T2, human C2 L279A (human, UniProt P06681 21-752).
T2 sequence: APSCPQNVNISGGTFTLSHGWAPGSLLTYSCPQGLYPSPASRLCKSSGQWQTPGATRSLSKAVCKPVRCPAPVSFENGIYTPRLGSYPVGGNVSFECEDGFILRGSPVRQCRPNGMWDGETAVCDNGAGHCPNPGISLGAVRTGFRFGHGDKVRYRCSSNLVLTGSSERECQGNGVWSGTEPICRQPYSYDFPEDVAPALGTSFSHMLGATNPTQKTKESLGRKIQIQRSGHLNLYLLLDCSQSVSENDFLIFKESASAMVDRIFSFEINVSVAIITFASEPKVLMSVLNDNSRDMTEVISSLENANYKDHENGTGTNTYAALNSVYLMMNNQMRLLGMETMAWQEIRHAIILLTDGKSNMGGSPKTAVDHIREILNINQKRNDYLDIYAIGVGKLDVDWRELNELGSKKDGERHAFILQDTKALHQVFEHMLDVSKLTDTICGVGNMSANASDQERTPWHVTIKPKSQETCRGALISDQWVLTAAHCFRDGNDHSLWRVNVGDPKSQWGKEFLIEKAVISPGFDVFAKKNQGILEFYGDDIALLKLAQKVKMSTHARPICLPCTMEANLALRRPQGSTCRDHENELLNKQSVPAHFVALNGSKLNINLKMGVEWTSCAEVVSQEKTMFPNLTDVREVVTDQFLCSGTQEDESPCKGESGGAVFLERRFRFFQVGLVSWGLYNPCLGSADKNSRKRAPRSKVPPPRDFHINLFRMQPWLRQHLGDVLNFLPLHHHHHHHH

The target of a further assay is T3, human C2 S456A (human, UniProt P06681 21-752).
T3 sequence: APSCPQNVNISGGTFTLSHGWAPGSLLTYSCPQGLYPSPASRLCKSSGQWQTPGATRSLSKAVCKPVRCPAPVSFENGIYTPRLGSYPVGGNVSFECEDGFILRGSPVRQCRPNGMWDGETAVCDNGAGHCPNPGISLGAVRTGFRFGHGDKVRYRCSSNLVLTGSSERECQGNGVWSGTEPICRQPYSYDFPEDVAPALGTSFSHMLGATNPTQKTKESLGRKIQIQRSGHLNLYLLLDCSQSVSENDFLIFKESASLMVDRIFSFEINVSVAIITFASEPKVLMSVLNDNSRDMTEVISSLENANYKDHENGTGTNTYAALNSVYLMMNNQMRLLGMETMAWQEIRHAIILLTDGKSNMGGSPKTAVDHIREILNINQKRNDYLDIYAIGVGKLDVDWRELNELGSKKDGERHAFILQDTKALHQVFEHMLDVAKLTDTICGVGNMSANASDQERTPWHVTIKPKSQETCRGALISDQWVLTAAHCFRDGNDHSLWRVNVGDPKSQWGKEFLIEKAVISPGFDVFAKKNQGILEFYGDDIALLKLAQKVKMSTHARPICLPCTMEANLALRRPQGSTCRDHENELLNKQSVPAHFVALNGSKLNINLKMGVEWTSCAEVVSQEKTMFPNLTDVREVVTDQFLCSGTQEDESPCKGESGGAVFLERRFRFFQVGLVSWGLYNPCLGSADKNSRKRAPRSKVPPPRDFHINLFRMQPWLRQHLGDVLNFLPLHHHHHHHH

In a further assay the target is T4, human C2 P486A (human, UniProt P06681 21-752).
T4 sequence: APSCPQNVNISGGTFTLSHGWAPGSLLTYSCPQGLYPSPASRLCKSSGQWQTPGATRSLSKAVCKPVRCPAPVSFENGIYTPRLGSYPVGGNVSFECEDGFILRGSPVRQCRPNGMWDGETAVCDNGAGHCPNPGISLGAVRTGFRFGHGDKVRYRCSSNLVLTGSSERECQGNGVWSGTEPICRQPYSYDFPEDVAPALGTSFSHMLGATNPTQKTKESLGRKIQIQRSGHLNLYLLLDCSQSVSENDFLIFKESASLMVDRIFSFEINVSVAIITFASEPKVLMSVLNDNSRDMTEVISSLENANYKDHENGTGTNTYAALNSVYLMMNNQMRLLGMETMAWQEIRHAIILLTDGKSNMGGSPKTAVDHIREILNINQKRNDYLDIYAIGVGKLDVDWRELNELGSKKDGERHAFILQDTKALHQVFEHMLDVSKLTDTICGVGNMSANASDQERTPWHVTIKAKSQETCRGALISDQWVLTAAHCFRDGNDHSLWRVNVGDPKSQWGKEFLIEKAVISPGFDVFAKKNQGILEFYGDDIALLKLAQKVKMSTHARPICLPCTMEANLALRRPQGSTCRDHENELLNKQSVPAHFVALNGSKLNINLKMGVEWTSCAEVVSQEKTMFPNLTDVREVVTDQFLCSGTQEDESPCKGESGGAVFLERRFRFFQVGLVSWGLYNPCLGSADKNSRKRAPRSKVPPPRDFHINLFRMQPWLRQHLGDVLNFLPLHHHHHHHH

B1: RF16-226 (antibody, human IgG4 S228P, lambda)
heavy: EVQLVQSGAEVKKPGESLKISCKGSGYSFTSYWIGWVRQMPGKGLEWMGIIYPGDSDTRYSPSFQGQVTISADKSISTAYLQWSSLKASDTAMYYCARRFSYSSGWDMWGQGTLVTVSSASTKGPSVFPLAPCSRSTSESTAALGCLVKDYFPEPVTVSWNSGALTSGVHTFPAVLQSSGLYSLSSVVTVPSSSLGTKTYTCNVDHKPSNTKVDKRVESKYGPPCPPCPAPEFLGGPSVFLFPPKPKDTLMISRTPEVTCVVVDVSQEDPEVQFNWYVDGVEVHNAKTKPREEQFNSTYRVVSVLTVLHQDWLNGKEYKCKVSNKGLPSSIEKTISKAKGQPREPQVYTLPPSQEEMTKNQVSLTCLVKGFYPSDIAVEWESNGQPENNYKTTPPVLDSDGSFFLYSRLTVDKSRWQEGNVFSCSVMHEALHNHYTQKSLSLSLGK
light: SYELTQPPSVSVSPGQTARITCSGDALTSKYVAWYQQKSGLAPLLVIYEDTRRPSGIPAKFSGSSSGSVATLTISGAHGDDEADYYCYSTDASGHQRVFGGGTKLTVLSQPKAAPSVTLFPPSSEELQANKATLVCLISDFYPGAVTVAWKADGSPVKAGVETTKPSKQSNNKYAASSYLSLTPEQWKSHRSYSCQVTHEGSTVEKTVAPTECS
notes: pH-dependent anti-C2 antibody from a phage display library; also called WT
Regarding B1, the Fold diff amounted to 3 fold in the assay with human C2 D511A, 5 fold with human C2 L279A, 7 fold with human C2 S456A and 1 fold with human C2 P486A.

Source of the values: US20220332804A1 (CSL INNOVATION, published 2022).
